Results as given in the RNAGym collection of RNA variant scans (doi:10.7554/elife.80360).

B1: HDV Ribozyme (parent)
chain: GGCCGGCAUGGUCCCAGCCUCCUCGCUGGCGCCGGCUGGGCAACAUUCCGAGGGGACCGUCCCCUCGGUAAUGGCGAAUGGGACCCA

Variants of: B1
Assay: self-cleavage, relative activity (ratio to wild type); higher = more cleavage; co-transcriptional

Going from G39U A43U to G39C C62U, the self-cleavage rises from 0.148 to 0.237.

Compared with G39A G52U, G39A G52C is lower in self-cleavage: 0.478 for the first, 0.394 for the second.

First: G39A G52A
Second: G38U A83C
The self-cleavage of the first is higher: 0.405 for the first, 0.0773 for the second.

First: G38U A83U
Second: G39C G73A
The self-cleavage of the first is higher: 0.0959 for the first, 0.0339 for the second.

Going from G38U U47A to G39A A78C, the self-cleavage falls from 0.109 to 0.0563.

Compared with G39A A78G, G39A A78U is higher in self-cleavage: 0.131 for the first, 0.201 for the second.

First: G38U A77G
Second: G39C C64U
The self-cleavage of the first is lower: 0.0923 for the first, 0.224 for the second.

Compared with G39C C64G, G39C A43U is lower in self-cleavage: 0.295 for the first, 0 for the second.

First: G39C A43G
Second: G39C A43C
The self-cleavage of the first is higher: 0.147 for the first, 0.138 for the second.

First: G39U G52U
Second: G39U G52A
The self-cleavage of the first is lower: 0.66 for the first, 0.772 for the second.

Going from G38U U72G to G38U U72C, the self-cleavage falls from 0.145 to 0.0978.

Going from G39A G82C to G39A G82A, the self-cleavage rises from 0.128 to 0.136.

First: G39U C61G
Second: G39U C61A
The self-cleavage of the first is lower: 0.464 for the first, 0.589 for the second.

Going from G39A C75G to G38C G82A, the self-cleavage falls from 0.143 to 0.0594.

Compared with G38U A87U, G38U A87C is lower in self-cleavage: 0.255 for the first, 0.231 for the second.

First: G39A C66G
Second: G39A C66A
The self-cleavage of the first is lower: 0.437 for the first, 0.441 for the second.

Compared with G39C A78U, G39U C84U is higher in self-cleavage: 0.131 for the first, 0.492 for the second.

First: G38C U47G
Second: G39C U69C
The self-cleavage of the first is lower: 0.225 for the first, 0.401 for the second.

Compared with G39U A71C, G39U A71G is higher in self-cleavage: 0.308 for the first, 0.383 for the second.

Compared with G38U U79G, G38U U79A is lower in self-cleavage: 0.208 for the first, 0 for the second.

Going from G38U U79C to G38U G53A, the self-cleavage rises from 0.112 to 0.369.

First: G38U G53C
Second: G38U G53U
The self-cleavage of the first is higher: 0.434 for the first, 0.342 for the second.

First: G38U G68U
Second: G39C C84A
The self-cleavage of the first is lower: 0.119 for the first, 0.19 for the second.

Compared with G39C C84G, G39U G55U is higher in self-cleavage: 0.0462 for the first, 0.677 for the second.

Going from G39U G55A to G38U U69G, the self-cleavage falls from 0.831 to 0.272.

First: G38U U69C
Second: G38U U69A
The self-cleavage of the first is lower: 0.192 for the first, 0.256 for the second.

Going from G39C G52A to G39C G52U, the self-cleavage rises from 0.218 to 0.253.

Going from G38U G40U to G38U G40A, the self-cleavage rises from 0.19 to 0.222.

Compared with G39A A83U, G39A A83G is higher in self-cleavage: 0.185 for the first, 0.507 for the second.

Going from G38U C58G to G38U C58A, the self-cleavage falls from 0.306 to 0.164.

Going from G39U U72A to G39U U72C, the self-cleavage falls from 0.13 to 0.0573.

Going from G39U G82A to G38C C85G, the self-cleavage falls from 0.27 to 0.237.

Compared with G38C C85A, G38U A70C is higher in self-cleavage: 0.0997 for the first, 0.158 for the second.

Going from G38U A70G to G38C U69G, the self-cleavage rises from 0.227 to 0.356.

Going from G38C U69A to G39U A56U, the self-cleavage rises from 0.095 to 0.819.

First: G39U A56C
Second: G39U A78U
The self-cleavage of the first is higher: 0.701 for the first, 0.157 for the second.

Going from G39U A78G to G39U A78C, the self-cleavage falls from 0.198 to 0.13.

Going from G39A A51G to G39A A51U, the self-cleavage rises from 0.458 to 0.521.

First: G39C A87G
Second: G39C A87C
The self-cleavage of the first is lower: 0.204 for the first, 0.323 for the second.

First: G39A G59A
Second: G39A G55C
The self-cleavage of the first is lower: 0.426 for the first, 0.443 for the second.

First: G38C G59U
Second: G38C G59A
The self-cleavage of the first is higher: 0.233 for the first, 0.199 for the second.

First: G39U G54A
Second: G39U G54U
The self-cleavage of the first is lower: 0.59 for the first, 0.722 for the second.

Compared with G39C U79G, G39C U79C is lower in self-cleavage: 0.196 for the first, 0.125 for the second.

First: G39A C41A
Second: G39A C41U
The self-cleavage of the first is lower: 0.471 for the first, 0.793 for the second.

Compared with G39A C41G, G39A G54A is higher in self-cleavage: 0.228 for the first, 0.54 for the second.

Going from G39A G73C to G38C G52U, the self-cleavage rises from 0.205 to 0.249.

Going from G38C G52C to G38C G67A, the self-cleavage rises from 0 to 0.194.

Going from G38C G67C to G38C G67U, the self-cleavage rises from 0.157 to 0.366.

Compared with G39C G59U, G39A G50C is higher in self-cleavage: 0.147 for the first, 0.504 for the second.

Compared with G38U C57U, G38U C57A is higher in self-cleavage: 0.126 for the first, 0.323 for the second.

First: G38U C57G
Second: G39U G50U
The self-cleavage of the first is lower: 0.38 for the first, 0.627 for the second.

First: G39U G50A
Second: G39U G68C
The self-cleavage of the first is higher: 0.681 for the first, 0.532 for the second.

Going from G38U C49A to G38U C49G, the self-cleavage falls from 0.264 to 0.0739.

First: G39C A42G
Second: G39C A42U
The self-cleavage of the first is lower: 0.0811 for the first, 0.227 for the second.

First: G39U A42G
Second: G39U A45C
The self-cleavage of the first is higher: 0.249 for the first, 0.196 for the second.

Compared with G39U A45U, G38U C48A is lower in self-cleavage: 0.325 for the first, 0.0978 for the second.

First: G38U C48U
Second: G39C U46A
The self-cleavage of the first is lower: 0.141 for the first, 0.19 for the second.

First: G39C U46C
Second: G39C U46G
The self-cleavage of the first is lower: 0.214 for the first, 0.262 for the second.

Compared with G38U C62U, G39U C58G is higher in self-cleavage: 0.337 for the first, 0.506 for the second.

First: G39A G74C
Second: G39A G74A
The self-cleavage of the first is lower: 0.147 for the first, 0.172 for the second.

Compared with G38U G82C, G38U G82U is lower in self-cleavage: 0.218 for the first, 0.129 for the second.

First: G39U U60G
Second: G39A C48U
The self-cleavage of the first is lower: 0.502 for the first, 0.504 for the second.

First: G39A C48G
Second: G39A C48A
The self-cleavage of the first is lower: 0.507 for the first, 0.609 for the second.

Compared with G39U C63U, G39A C57A is lower in self-cleavage: 0.915 for the first, 0.41 for the second.

First: G39A C57U
Second: G38C G39U
The self-cleavage of the first is higher: 0.665 for the first, 0.0396 for the second.

First: G38C G39A
Second: G39C G55C
The self-cleavage of the first is lower: 0.113 for the first, 0.31 for the second.

Compared with G39U A70U, G38U U65A is lower in self-cleavage: 0.831 for the first, 0.292 for the second.

Compared with G39U C86U, G39U C86A is lower in self-cleavage: 0.858 for the first, 0.796 for the second.

Compared with G39C C41G, G39C U72G is lower in self-cleavage: 0.462 for the first, 0.128 for the second.

Compared with G39C U72C, G38U U60C is higher in self-cleavage: 0.155 for the first, 0.374 for the second.

Compared with G38U U60A, G38U U60G is lower in self-cleavage: 0.175 for the first, 0.13 for the second.

Going from G38U C75G to G38U C75U, the self-cleavage rises from 0.0707 to 0.163.

Compared with G39C C58G, G39A A45C is lower in self-cleavage: 0.277 for the first, 0.188 for the second.

Compared with G39A G67C, G38U C86U is lower in self-cleavage: 0.665 for the first, 0.241 for the second.

First: G39A C64G
Second: G39A C64U
The self-cleavage of the first is higher: 0.492 for the first, 0.484 for the second.

Going from G39A C64A to G39C U47G, the self-cleavage falls from 0.458 to 0.199.

First: G39A U79C
Second: G39A U79G
The self-cleavage of the first is lower: 0.0723 for the first, 0.262 for the second.

First: G39A U79A
Second: G39U G67U
The self-cleavage of the first is lower: 0.162 for the first, 0.727 for the second.

Compared with G39U C64A, G39A G53A is lower in self-cleavage: 0.649 for the first, 0.632 for the second.

First: G39A G53C
Second: G38C G53U
The self-cleavage of the first is higher: 0.383 for the first, 0.266 for the second.

First: G39C U60G
Second: G39C U60C
The self-cleavage of the first is lower: 0.185 for the first, 0.415 for the second.

Compared with G39C U60A, G39C G80A is lower in self-cleavage: 0.481 for the first, 0.0511 for the second.

Compared with G39C G80C, G38C G55A is higher in self-cleavage: 0.0845 for the first, 0.124 for the second.

In the case of G38C G55C, the self-cleavage is reported as 0.46.
